The text below walks through data of PMC3872205 (Journal of molecular biology, 2013).

As a reminder, the Kd is the free concentration of one partner at which half of the binding sites on the other are occupied at equilibrium, for simple one-to-one binding. A higher Kd goes with a looser complex.

What all share (test): ITC
Assay [1] has as its target Rb construct phosphorylated at RbC^N (S788/S795) (construct of Table 2).
For assay [2], the target named is Rb construct phosphorylated at Rb^IDL (T356/T373) (construct of Table 2).
In assay [3] the target is Rb construct phosphorylated at Rb^PL (S608/S612) (construct of Table 2).
The target of assay [4] is Rb^53-800∆NL/∆PL/S780A, phosphorylated (UniProt P06400).
In assay [5] the target is Rb^380-800∆PL/S780A, unphosphorylated (UniProt P06400).
Assay [6] addresses Rb^380-816∆PL/S780A with S807 and S811 substituted for alanine, phosphorylated (UniProt P06400).
Assay [7] addresses Rb^380-800∆PL/S780A, phosphorylated (UniProt P06400).
Assay [8] addresses Rb^380-816∆PL/S780A with S788 and S795 substituted to alanine, unphosphorylated (UniProt P06400).
Assay [9] addresses Rb^380-816∆PL/S780A with S788 and S795 substituted to alanine, phosphorylated (UniProt P06400).
Assay [10] has as its target Rb^380-816∆PL/S780A, phosphorylated (UniProt P06400).
Assay [11] addresses Rb^380-816∆PL/S780A, unphosphorylated (UniProt P06400).
For assay [12], the target named is Rb^380-794∆PL/S780A, unphosphorylated (UniProt P06400).
The target of assay [13] is Rb^380-794∆PL/S780A, phosphorylated (UniProt P06400).
For assay [14], the target named is Rb^53-800∆NL/∆PL/S780A, phosphorylated (UniProt P06400 53-800, S780A, phosphorylated with Cdk; Rb^IDL (T356/T373) and RbC^N (S788/S795) sites).
For assay [15], the target named is T1, Rb^380-816/780A, unphosphorylated (UniProt P06400 380-816, 780A).
T1 sequence (looked up): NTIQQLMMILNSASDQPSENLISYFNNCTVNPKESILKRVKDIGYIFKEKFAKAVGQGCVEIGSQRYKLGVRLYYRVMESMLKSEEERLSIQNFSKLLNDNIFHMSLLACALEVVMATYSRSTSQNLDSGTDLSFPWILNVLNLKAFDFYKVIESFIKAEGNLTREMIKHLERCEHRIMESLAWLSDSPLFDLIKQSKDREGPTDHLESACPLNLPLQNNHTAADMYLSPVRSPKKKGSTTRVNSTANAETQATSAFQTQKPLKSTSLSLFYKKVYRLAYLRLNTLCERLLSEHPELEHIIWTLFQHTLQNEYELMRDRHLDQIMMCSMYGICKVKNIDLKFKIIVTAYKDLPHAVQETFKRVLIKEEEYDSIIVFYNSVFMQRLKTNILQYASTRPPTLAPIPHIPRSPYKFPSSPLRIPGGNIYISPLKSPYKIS

The target of assay [16] is Rb^53-800∆NL/∆PL/S780A, unphosphorylated (UniProt P06400 53-800, S780A).

With “E2F3 transactivation domain (E2F3^TD) (domain or fragment)”, the fold rise of Kd against the unphosphorylated construct in assay [1] was determined as 10 fold; in assay [3], 9 fold. Besides, the fold inhibition of binding against the unphosphorylated construct in [2] was determined as 25 fold.

Consider “E2F2 transactivation domain (E2F2^TD) (domain or fragment)”, for which, in assay [4], the fold reduction in binding affinity against the unphosphorylated construct came to 22 fold. Besides, in [2], the fold inhibition of binding against the unphosphorylated construct is 2 fold.

As for “E2F1 transactivation domain (E2F1^TD, residues 372-437) (from UniProt Q01094 372-437) (domain or fragment)”, the Kd is 50 nM in [5]; 510 nM in assay [6]; 510 nM in assay [7]; 90 nM in [8]; 130 nM in [9]; 470 nM in assay [10]. Further, the Kd came out at 70 nM in [11], 120 nM in [12] and 270 nM in assay [13].

B1: E2F1 transactivation domain (E2F1^TD, residues 372-437) (domain or fragment, UniProt Q01094 372-437, looked up)
chain: DRLSPLVAADSLLEHVREDFSGLLPEEFISLSPPHEALDYHFGLEEGEGIRDLFDCDFGDLTPLDF
In the case of B1, the Kd worked out at 30000 nM in assay [14], 70 nM in [15] and 130 nM in [16].
